Laboratory results as given in patent US20230227838A1, “ENHANCED CELL SURVIVAL AGAINST BIOTIC AND ABIOTIC STRESSES THROUGH SALICYLICK ACID-INDUCED NPR1 CONDENSATES” (priority 2020, published 2023).

B1: SAE2, SUMO-activating enzyme 2 (protein, UniProt Q9SJT1 2-700, looked up)
SUMO-activating enzyme subunit 2: ATQQQQSAIKGAKVLMVGAGGIGCELLKTLALSGFEDIHIIDMDTIEVSNLNRQFLFRRSHVGQSKAKVARDAVLRFRPNINIRSYHANVKNPEFDVDFFKQFDVVLNGLDNLDARRHVNRLCLAADVPLVESGTTGFLGQVTVHIKGKTECYECQTKPAPKTYPVCTITSTPTKFVHCIVWAKDLLFAKLFGDKNQDNDLNVRSNNSASSSKETEDVFERSEDEDIEQYGRKIYDHVFGSNIEAALSNEETWKNRRRPRPIYSKDVLPESLTQQNGSTQNCSVTDGDLMVSAMPSLGLKNPQELWGLTQNSLVFIEALKLFFAKRKKEIGHLTFDKDDQLAVEFVTAAANIRAESFGIPLHSLFEAKGIAGNIVHAVATTNAIIAGLIVIEAIKVLKKDVDKFRMTYCLEHPSKKLLLMPIEPYEPNPACYVCSETPLVLEINTRKSKLRDLVDKIVKTKLGMNLPLIMHGNSLLYEVGDDLDDIMVANYNANLEKYLSELPSPILNGSILTVEDLQQELSCKINVKHRFFSEILNPVLNSVWFLIILPSTFPKLFHFTESRNQDGLSLDIILGFSNVTIRRVLTMFETGRRLTHPLLILFCHREEFDEEKEPEGMVLSGWTPSPATNGESASTSNNENPVDVTESSSGSEPASKKRRLSETEASNHKKETENVESEDDDIMEVENPMMVSKKKIRVE
B2: UBP14, ubiquitin-specific protease 14 (protein, UniProt Q8L6Y1 1-797, looked up)
Ubiquitin carboxyl-terminal hydrolase 14: MELLRSNLSRVQIPEPTHRIYKHECCISFDTPRSEGGLFVDMNSFLAFGKDYVSWNYEKTGNPVYLHIKQTRKSIPEDRPLKKPTLLAIGVDGGFDNNEPEYEESYSIVILPDFVSLPFPSVELPEKVRIAVDTVVNAVGAERKEQVAAWTAEKKLISEHALTLQQIKSGIVIPPSGWKCSKCDKTENLWLNLTDGMILCGRKNWDGTGGNNHAVEHYKETAYPLAVKLGTITADLEAADVYSYPEDDSVLDPLLAEHLAHFGIDFSSMQKTEMTTAERELDQNTNFDWNRIQESGKELVPVFGPGYTGLVNLGNSCYLAATMQIVFSTHSFISRYFSHQSLKMAFEMAPADPTLDLNMQLTKLGHGLLSGKYSMPATQKDATTGDPRQEGIPPRMFKNVIAASHAEFSSMRQQDALDFFLHLVGKVERASNTTPDLDPSRSFKFGIEEKILCPSGKVGYNKREDCILSLNIPLHEATNKDELEAFHKQKAGKGLEENDMRSSDEIVRPRVPLEACLANFASSEPIEDYYSSALKGMTTAIKTTGLTSFPDYLVLHMRKFVMEEGWVPKKLDVYIDVPDVIDISHMRSKGLQPGEELLPDGVPEEVMESAQPVANEEIVAQLVSMGFSQLHCQKAAINTSNAGVEEAMNWLLSHMDDPDIDAPISHQTSDIDQSSVDTLLSFGFAEDVARKALKASGGDIEKATDWVFNNPNASVSDMDVSSSNSAQTPAQSGLPDGGGKYKLFGIVSHMGTSVHCGHYVAHILKEGRWVIFNDDKVGISTDPPKDMGYVYFFQRLD
B3: SINAT2, seven in absentia of Arabidopsis 2 (protein, UniProt Q9M2P4 1-308, looked up)
E3 ubiquitin-protein ligase SINAT2: MAPGGSALKEVMESNSTGMDYEVKTAKVEVNNNKPTKPGSAGIGKYGIHSNNGVYELLECPVCTNLMYPPIHQCPNGHTLCSNCKLRVQNTCPTCRYELGNIRCLALEKVAESLEVPCRYQNLGCHDIFPYYSKLKHEQHCRFRPYTCPYAGSECSVTGDIPTLVVHLKDDHKVDMHDGCTFNHRYVKSNPHEVENATWMLTVFNCFGRQFCLHFEAFQLGMAPVYMAFLRFMGDENEAKKFSYSLEVGAHGRKLTWQGIPRSIRDSHRKVRDSQDGLIIPRNLALYFSGGDRQELKLRVTGRIWKEE
B4: UBP24, ubiquitin-specific protease 24 (protein, UniProt Q9FPS3 1-551, looked up)
Ubiquitin carboxyl-terminal hydrolase 24: MSEKKVFVFGSFTEHETRSFFEQKPTKDPQNSKDKCVGSIQFGSLNLAAENSSVNTNGELKKGEADGTVKSAGSQERLDASRPASSDKNNDSDAKLPRKNSLRVPEHVVQNGIIKEISESNKSLNNGVAVKTDPIGLDNLSMSDGESDPVYKASSSKFQALDNEDFSSDSSSGSIQRKKNLKVPTESVPPVKDFTPRGLINAGNLCFLNATLQALLSCSPFVQLLQKIQLQDIPKADSPTLAAFSEFISELDVPSSSSIRNNVTVVEAGRPFRPAMFEGVLRNFTPDVLNNMSGRPRQEDAQEFLSFIMDQMHDELLKLKEQSPKVTASKSSVISSANDDGDEWETVGPKNKSAVTRTQSFVPSELSEIFGGQLKSVVKAKGTKASATVQPYLLLHLDIHPDGVQGIEDALHLFSAQEDLEGYRASVTGKTGVVSASKSIKIQKLSKIMILHLMRFSYGSQGSTKLRKGVKFPLELNLNRSHLVSLSNESLRYELVATITHHGWDPSKGHYTTDARRKNGQWLRFDDASVTPIGTKLVLHDQAYVLFYKQV
B5: VLN2, villin 2 (protein, UniProt O81644 1-976, looked up)
Villin-2: MSTKVLDPAFQGAGQKPGTEIWRIENFEAVPVPKSEHGKFYMGDTYIVLQTTQNKGGAYLFDIHFWIGKDTSQDEAGTAAVKTVELDAVLGGRAVQHREIQGHESDKFLSYFKPCIIPLEGGVASGFKTVEEEVFETRLYTCKGKRAIRLKQVPFARSSLNHDDVFILDTEEKIYQFNGANSNIQERAKALEVVQYLKDKYHEGTCDVAIVDDGKLDTESDSGAFWVLFGGFAPIGRKVANDDDIVPESTPPKLYCITDGKMEPIDGDLSKSMLENTKCYLLDCGAEIYIWVGRVTQVDERKAASQSAEEFLASENRPKATHVTRVIQGYESHSFKSNFDSWPSGSATPGNEEGRGKVAALLKQQGVGLKGIAKSAPVNEDIPPLLESGGKLEVWYVNGKVKTPLPKEDIGKLYSGDCYLVLYTYHSGERKDEYFLSCWFGKKSIPEDQDTAIRLANTMSNSLKGRPVQGRIYEGKEPPQFVALFQPMVVLKGGLSSGYKSSMGESESTDETYTPESIALVQVSGTGVHNNKAVQVETVATSLNSYECFLLQSGTSMFLWHGNQSTHEQLELATKVAEFLKPGITLKHAKEGTESSTFWFALGGKQNFTSKKASSETIRDPHLFSFAFNRGKFQVEEIYNFAQDDLLTEDIYFLDTHAEVFVWVGQCVEPKEKQTVFEIGQKYIDLAGSLEGLHPKVPIYKINEGNEPCFFTTYFSWDATKAIVQGNSFQKKASLLFGTHHVVEDKSNGGNQGLRQRAEALAALNSAFNSSSNRPAYSSQDRLNESHDGPRQRAEALAALSSAFNSSSSSTKSPPPPRPVGTSQASQRAAAVAALSQVLVAENKKSPDTSPTRRSTSSNPADDIPLTEAKDEEEASEVAGLEAKEEEEVSPAADETEAKQETEEQGDSEIQPSGATFTYEQLRAKSENPVTGIDFKRREAYLSEEEFQSVFGIEKEAFNNLPRWKQDLLKKKFDLF
B6: NTF2B, nuclear transport factor 2B (protein, UniProt Q9C7F5 2-126, looked up)
Nuclear transport factor 2B: SQMDPDAVSKAFVEHYYSTFDTNRVGLAGLYQEASMLTFEGQKIQGVQSIVAKLTSLPFQQCKHHISTVDCQPSGPASGMLVFVSGNLQLAGEEHALKFSQMFHLMPTPQGSFYVFNDIFRLNYA
B7: ADL3, CF1, DL3, DRP2B, dynamin-like 3 (protein, UniProt Q9LQ55 1-920, looked up)
Dynamin-2B: MEAIDELSQLSDSMRQAASLLADEDPDETSSSRRPATSLNVVALGNVGAGKSAVLNSLIGHPVLPTGENGATRAPIIIDLSREESLSSKAIILQIDNKNQQVSASALRHSLQDRLSKGASGRGRDEIYLKLRTSTAPPLKLIDLPGLDQRIVDDSMIGEHAQHNDAILLVVVPASQASEISSSRALKIAKEYDPESTRTVGIISKIDQAAENPKSLAAVQALLSNQGPPKTTDIPWVALIGQSVSIASAQSGGSENSLETAWRAESESLKSILTGAPQSKLGRIALVDTLASQIRSRMKLRLPNILTGLQGKSQIVQDELARLGEQLVSSAEGTRAIALELCREFEDKFLLHLAGGEGSGWKVVASFEGNFPNRIKKLPLDRHFDLNNVKRIVLEADGYQPYLISPEKGLRSLIKTVLELAKDPARLCVDEVHRVLVDIVSASANATPGLGRYPPFKREVVAIASAALDGFKNEAKKMVVALVDMERAFVPPQHFIRLVQRRMERQRREEELKGRSSKKGQDAEQSLLNRATSPQPDGPSSTGGSLKSLRDKLMPQDKDKDKEKETPEVSGLKTAGPEGEITAGYLMKKSAKTNGWSRRWFVLNEKTGKLGYTKKQEERNFRGTVTLEECSIEEISDDEGEKSKSSKDKKSNGPDSKGPGLVFKITCRVPYKTVLKAHNALVLKAESMVDKNEWINKLQKVIQARGGQVGSASMRQSLSEGSLDKMVRKPVDPEEELRWMSQEVRGYVEAVLNSLAANVPKAVVLCQVEKSKEDMLNQLYSSISAIGNERIESLIQEDQNVKRRRDRYQKQSSLLSKLTRQLSIHDNRAAAASSWSDNSGTESSPRTNGGSSGEDWMNAFNAAASGPDSLKRYGSGGHSRRYSDPAQNGEDSSGSGGSSRRTTPNRLPPAPPQSGSSYRY
B8: FPA, RNA binding (protein, UniProt Q8LPQ9 1-901, looked up)
Flowering time control protein FPA: MALSMKPFRADDSGFQSNNLWVGSLTPETTESDLTELFGRYGDIDRITVYSSRGFAFIYYRHVEEAVAAKEALQGANLNGSQIKIEYARPAKPCKSLWVGGIGPNVSKDDLEEEFSKFGKIEDFRFLRERKTAFIDYYEMDDALQAKSMNGKPMGGSFLRVDFLRSQAPKKEQWAGSYDNRNGNMNHKPQYPHSYEDFKGDVQPSKVLWIGFPPTATQCNDEQILHNAMILFGEIERVKSYPSRNFALVEFRSAEEARQCKEGLQGRLFNNPRIKIMYSNDELPPEQDDTSFYSGMKRSRTDMFNNDPSFVSSPHSTGIPGSMRPLRGTNERSYNGAEYNDVVGKEPNWRRPSANGTGILPSPTGPGILPSPAQGTRRPMRSNPDSWEGYDPAQLVRESKRTRRDGSVDGFTPMGVDERSFGRGSVAARPIRGPPDSDHIWRGMIAKGGTPVCCARCVPMGKGIETKLPEVVNCSARTDLNMLAKHYAVAIGCEIVFFVPDREEDFASYTEFLRYLSSKDRAGVAKLDDGTTLFLVPPSDFLTDVLQVTRQERLYGVVLKLPPPAVPVTASYRQESQSNPLHYMDQARDSPANASHSLYPPRENYIRGAPEHLTAASKPSVSEPLRIPNNAAPQAGVSLTPELLATLASILPATSQPAAPESHQPMSGPSTVVSTAHQSNGLYNGEAPSQAWKRGPQTVHDASNQSFQQYGNQYTPAGQLPPPPSRYPPASNNPNYTSGMVHGNMQYQSQSVNMPQLSPLPNMPHNNYSMYTQGSSNHPVSQPMVQQYQPEASMPNQNYGPIPSYQQANFHGVTTNQAQNLNPSQFQAAMQPPADKANLEPQNQALRLQPMISGDGQGTTDGEVDKNQRYQSTLQFAANLLLQIQQKQQQQSSGTPAGQGP
B9: RH39 (protein, UniProt Q56X76 1-621, looked up)
DEAD-box ATP-dependent RNA helicase 39: MVGASRTILSLSLSSSLFTFSKIPHVFPFLRLHKPRFHHAFRPLYSAAATTSSPTTETNVTDPDQLKHTILLERLRLRHLKESAKPPQQRPSSVVGVEEESSIRKKSKKLVENFQELGLSEEVMGALQELNIEVPTEIQCIGIPAVMERKSVVLGSHTGSGKTLAYLLPIVQLMREDEANLGKKTKPRRPRTVVLCPTRELSEQVYRVAKSISHHARFRSILVSGGSRIRPQEDSLNNAIDMVVGTPGRILQHIEEGNMVYGDIAYLVLDEADTMFDRGFGPEIRKFLAPLNQRALKTNDQGFQTVLVTATMTMAVQKLVDEEFQGIEHLRTSTLHKKIANARHDFIKLSGGEDKLEALLQVLEPSLAKGSKVMVFCNTLNSSRAVDHYLSENQISTVNYHGEVPAEQRVENLKKFKDEEGDCPTLVCTDLAARGLDLDVDHVVMFDFPKNSIDYLHRTGRTARMGAKGKVTSLVSRKDQMLAARIEEAMRNNESLESLTTDNVRRDAARTHITQEKGRSVKQIREVSKQRNSRDKPSSSSPPARSTGGKTPVRKSSSSSFSKPRKASSPPEKSSKPKRKILKTVGSRSIAARGKTGSDRRPGKKLSVVGFRGKSSSARAS

Each binder was assayed against sim3-GFP (Arabidopsis thaliana) (UniProt P93002) (assay: sim3-GFP IP, LC-MS/MS).
sim3-GFP (Arabidopsis thaliana), sequence (P93002 other isoform, or with tags, fused parts or gaps): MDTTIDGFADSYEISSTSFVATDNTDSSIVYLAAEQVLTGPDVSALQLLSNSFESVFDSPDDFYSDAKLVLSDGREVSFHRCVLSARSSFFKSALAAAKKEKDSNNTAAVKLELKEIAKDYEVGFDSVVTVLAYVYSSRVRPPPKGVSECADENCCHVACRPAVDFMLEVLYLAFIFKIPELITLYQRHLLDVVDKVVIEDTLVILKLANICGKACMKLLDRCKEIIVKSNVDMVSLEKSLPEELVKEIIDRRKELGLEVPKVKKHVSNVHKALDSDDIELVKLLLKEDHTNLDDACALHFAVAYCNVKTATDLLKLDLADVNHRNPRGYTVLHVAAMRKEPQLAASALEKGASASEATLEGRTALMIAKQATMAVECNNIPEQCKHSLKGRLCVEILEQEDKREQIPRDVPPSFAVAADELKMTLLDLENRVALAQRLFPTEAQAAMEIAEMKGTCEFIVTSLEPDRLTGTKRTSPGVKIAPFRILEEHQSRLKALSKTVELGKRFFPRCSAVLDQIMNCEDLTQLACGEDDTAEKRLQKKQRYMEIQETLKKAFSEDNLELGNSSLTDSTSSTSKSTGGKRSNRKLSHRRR

| Binder | Normalized Fold Change: SA vs Mock [fold] |
| --- | --- |
| B1 | 5.82 |
| B2 | 5.02 |
| B3 | 2.99 |
| B4 | 2580 |
| B5 | 3.54 |
| B6 | 11.2 |
| B7 | 2.5 |
| B8 | 4.87 |
| B9 | 46.9 |
